Data from article PMC3608554.

Target: PLCg2 (UniProt P16885)
Assay: anti-PLCg2 IP, anti-BANK1 blot
Settings: reference: wild type; sites Y484,Y488

BANK1 (from UniProt Q8NDB2) Y484F/Y488F
binding against the reference: weaker
